Measurements: PMC11889585, “Characterization of the putative yeast mitochondrial triacylglycerol lipase Tgl2” (The Journal of Biological Chemistry, 2025)

Target: the molecule itself
Test: non-reducing SDS-PAGE with immunoblot; whole cell lysate, crude or isolated mitochondria of yeast (tgl2Δ, yme1Δ, other deletion strains) expressing HA-tagged Tgl2 variants; reducing agents omitted during SDS-PAGE; anti-HA immunodecoration; dimer-sized band

B1: N terminally hemagglutinin (HA) tagged Tgl2 (natural protein, S. cerevisiae, UniProt P54857 1-326, looked up)
chain: MKNDNKANDIIIDSVKVPDSYKPPKNPIVFCHGLSGFDKLILIPSVFHLTNLISNSIVHNMAENFMQDDEDKSDNKYTNLLEIEYWIGVKKFLQSKGCTVITTKVPGFGSIEERAMALDAQLQKEVKKIESKDKRHSLNLIAHSMGGLDCRYLICNIKNRNYDILSLTTISTPHRGSEMADYVVDLFENLNALRVSQKILPICFYQLTTAYMKYFNLVTPNSPKVSYFSYGCSFVPKWYNVFCTPWKIVYERSKGCPNDGLVTINSSKWGEYRGTLKDMDHLDVINWKNKLQDDWSKFFRTTTVGEKVDILNFYLKITDDLARKGF
notes: Tgl2, putative mitochondrial triacylglycerol lipase of the intermembrane space, S. cerevisiae; also called HA-Tgl2; native-like HA-Tgl2; source: S. cerevisiae (tgl2Δ, yme1Δ and other deletion strains), overexpressed from plasmid pYX142; in whole cell lysate, crude or isolated mitochondria; not shown: HA, N-terminal, kept
In the case of B1, the “stoichiometry N” value is reported as 2.
